B1: N-Flag-human Bak C14A, C166A, ΔC186-211, with a carboxyl-terminal hexa-His tag and a terminal Cys (domain or fragment, UniProt Q16611 1-185, looked up)
chain: MASGQGPGPPRQEAGEPALPSASEEQVAQDTEEVFRSYVFYRHQQEQEAEGVAAPADPEMVTLPLQPSSTMGQVGRQLAIIGDDINRRYDSEFQTMLQHLQPTAENAYEYFTKIATSLFESGINWGRVVALLGFGYRLALHVYQHGLTGFLGQVTRFVVDFMLHHAIARWIAQRGGWVAALNLGN
modifications: terminal Cys linked covalently to the liposome lipid Mal-PEG3-PE (where that lipid was included)
notes: Bak, human; the C-terminal TM segment (ΔC186-211) replaced by 6 His residues and a unique terminal Cys; The pET151 vector may add further N-terminal residues; also called BakΔC*; surface anchored Bak; source: E. coli BL21Star (pET151 vector), purified from the soluble extract on Ni2+-NTA resin; not shown: His6 followed by a terminal Cys, C-terminal, kept

Tests used:
[1] = molecular target: N-Flag-human Mcl-1 C16A, C286A, Δ328-361, with a carboxyl-terminal hexa-His tag and a terminal Cys (human) (UniProt Q07820)
N-Flag-human Mcl-1 C16A, C286A, Δ328-361, with a carboxyl-terminal hexa-His tag and a terminal Cys (human), sequence (Q07820 1-327 C16A/C286A): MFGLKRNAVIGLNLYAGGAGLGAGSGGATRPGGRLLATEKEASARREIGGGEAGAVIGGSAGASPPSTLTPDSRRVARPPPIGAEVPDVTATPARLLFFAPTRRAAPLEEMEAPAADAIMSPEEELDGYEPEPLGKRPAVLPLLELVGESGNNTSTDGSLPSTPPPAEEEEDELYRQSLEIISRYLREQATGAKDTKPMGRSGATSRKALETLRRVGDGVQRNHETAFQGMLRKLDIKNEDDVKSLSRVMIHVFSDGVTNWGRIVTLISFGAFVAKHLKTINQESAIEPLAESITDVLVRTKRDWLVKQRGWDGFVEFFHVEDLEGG

[2] = molecular target: the molecule itself; experiment: cross-linking; Bak conjugated onto liposomes (2 mol% Mal-PEG3-PE, 1 mol% DOGS-NTA-Ni, 2 mg lipid/ml), 100 mM KCl, 10 mM Hepes pH 7.0, 1 h at room temperature with Bim BH3 peptide (…-OH); proteoliposomes recovered by centrifugation; 0.5 mM BS3, 1 h at room temperature; SDS-PAGE and anti-Bak immunoblot

| Molecule | tBid-induced (40 nM), Bak-dependent calcein release from proteoliposomes: molar excess of Noxa BH3 peptide relative to Mcl-1 that overcame the inhibition by Mcl-1 (molar excess relative to Mcl-1) [1] | binding result [2] |
| --- | --- | --- |
| Noxa BH3 peptide | 2.5 | – |
| B1 | – | binds |
